Reference: paper PMC4535883, “A Single-Strand Annealing Protein Clamps DNA to Detect and Secure Homology”

Legend:
[1] = biological target: T1, Redβ (single-strand annealing protein) (bacteriophage lambda, UniProt P03698 1-261); assay: CD; filament formed by Redβ annealing; CD shift at 210-220 nm; Buffer composition not in the material; optical tweezers at 29.2 °C; conditions: protein: recombinant; tags: StrepII (stated for the purified protein used as western blot standard); blunt; strands annealed by Redβ
T1 sequence: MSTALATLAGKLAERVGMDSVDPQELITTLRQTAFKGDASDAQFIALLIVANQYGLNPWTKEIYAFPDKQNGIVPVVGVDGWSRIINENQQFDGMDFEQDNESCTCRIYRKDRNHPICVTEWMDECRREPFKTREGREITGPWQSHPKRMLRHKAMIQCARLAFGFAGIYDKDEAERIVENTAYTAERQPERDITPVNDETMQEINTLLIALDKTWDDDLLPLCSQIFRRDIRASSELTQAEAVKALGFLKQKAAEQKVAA

[2] = biological target: T1, Redβ (single-strand annealing protein); assay: FCS/FCCS; effective KEpstein for 30-b ssDNA, calculated as Kd/21; Buffer composition not in the material; optical tweezers at 29.2 °C; conditions: protein: recombinant; tags: StrepII (stated for the purified protein used as western blot standard); label: Atto 655 (5')
[3] = biological target: T1, Redβ (single-strand annealing protein); assay: FCCS; half of ssDNA bound; about 30% bound at 100 nM; Hill coefficient close to 1; Buffer composition not in the material; optical tweezers at 29.2 °C; conditions: protein: recombinant; tags: StrepII (stated for the purified protein used as western blot standard); label: Atto 655 (5')
[4] = biological target: T1, Redβ (single-strand annealing protein); assay: FCS/FCCS; per single binding site of Redβ monomer; global fit of isodesmic growth model; Buffer composition not in the material; optical tweezers at 29.2 °C; conditions: protein: recombinant; tags: StrepII (stated for the purified protein used as western blot standard); label: Atto 655 (5')
[5] = biological target: T1, Redβ (single-strand annealing protein); assay: optical tweezers; preassembled filament, 750 nM Redβ; >20% of traces >100 pN; Buffer composition not in the material; optical tweezers at 29.2 °C; conditions: protein: recombinant; tags: StrepII (stated for the purified protein used as western blot standard); 25 bp duplex, ssDNA spacers on both sides
[6] = biological target: T1, Redβ (single-strand annealing protein); assay: optical tweezers; preassembled filament; unzipping forces >200 pN, step 10 ± 2 bp; Buffer composition not in the material; optical tweezers at 29.2 °C; conditions: protein: recombinant; tags: StrepII (stated for the purified protein used as western blot standard); 123 bp duplex, ssDNA spacers on both sides

B1: CD 44-mer pair ssDNACD(1)+(2) (dsDNA)
DNA 1: GTAGAGTATAAGCACAGAGAGGATAGAGAACAATGGAGCGGGTGT
DNA 2: ACACCCGCTCCATTGTTCTCTATCCTCTCTGTGCTTATACTCTAC
[1]
  binding result: binds

## ATGCCTCTCACTCGTCATCTTGTTTAGTAT (ssDNA) [ssDNA FCS 30 b]
[2]
  Kd: ~0.24 µM
[3]
  apparent K (half saturation): ~300 nM
[4]
  Kd: 5 ± 0.2 µM

B2: 25 bp high-force unzipping linker (dsDNA)
DNA 1: TGTTTAGTATGAGTCGAAATTCTTACGGCGTGTCAGAGAGGC
DNA 2: TGACAGGAAACAGCACGCCAGCCTCTCTGACACGCCGTAAGAATTCGATAGGCAGCAGATTCTCTTTTCACCTTC
modifications: 5' phosphate on overhang A
[5]
  binding result: binds

B3: 123 bp high-force unzipping linker (dsDNA)
DNA 1: TGTTTAGTATGAGTCGAAATTCTTACGGCGTGTCAGAGAGGCAATGGCTTGACTTGTGGTGGATCACAGTTTGTGAGTAACGGCAAGATGCGGTAAACACTGTAATGCGAGCTTCATTGACTCGGCTTAAAGTTCCTGGT
DNA 2: TGACAGGAAACAGCACGCCAACCAGGAACTTTAAGCCGAGTCAATGAAGCTCGCATTACAGTGTTTACCGCATCTTGCCGTTACTCACAAACTGTGATCCACCACAAGTCAAGCCATTGCCTCTCTGACACGCCGTAAGAATTCGATAGGCAGCAGATTCTCTTTTCACCTTC
modifications: 5' phosphate on overhang A
[6]
  binding result: binds
